The values that follow come from patent US20060127400A1, “Activation of regulatory T cells by alpha-melanocyte stimulating hormone” (THE SCHEPENS EYE RESEARCH INSTITUTE, INC., priority 1999, published 2006).

Assay [1] relates to primed T cells. Description: total TGF-β production by TCR-stimulated primed T cells, Mv1Lu (CCL-64) bioassay. Particulars: α-MSH 30 pg/ml, TGF-β 5.0 ng/ml, 48 hours. Format: cell-based, mouse (BALB/c). How it is done: TGF-β bioassay. To measure total TGF-β, 100 μl of conditioned media was pretreated according to standard procedures (24) with 10 μl 1N HCL to lower the media pH to 2 and incubated for 1 hour at 4° C. The acid was neutralized with 20 μl of a 1:1 mixture of 1N NaOH: 1M HEPES returning the culture supernatant to a pH 7.3. The transiently acidified conditioned media was then used in the Mv1Lu assay; diluted 1:4 in EMEM+0.5% FBS. To the wells of a Falcon 96-well flat-bottom plate, 100 μl of diluted transiently acidified samples were added with 100 μl of 1×10^5 Mv1Lu cells (CCL-64; ATCC, Rockville, Md.). The plate was incubated for 20 hours at 37° C., 5% CO2 followed by the addition of 20 μl of 50 μCi/ml 3H-thymidine and the plate was incubated for an additional 4 hours. Supernatant was discarded and 50 μl of 10× Trypsin-EDTA (Biowhittaker, Walkersville, Md.) solution was added to each well and the plate was incubated for 15 minute at 37° C. The cells were collected onto filter paper using a Tomtec Plate Harvester 96 and counts per minute (CPM) of incorporation 3H-thymidine was measured using a Wallac 1205 Betaplate Liquid Scintillation Counter. Cultures of known amounts of purified activated TGF-β1, 20 ng/ml to 0.2 pg/ml (R&:D Systems), were prepared in the same plate for calculating a standard curve to quantify the concentration of total TGF-β in the samples.
Primed T Cell In Vitro Assays. From draining lymph nodes of BALB/c mice immunized 7 days previously with MT-Ag, primed T cells were isolated using CD3 enrichment columns (R&D Systems). T-cells (4×10^5 cells) suspended in serum-free media were added to the wells of a 96 well, round bottom plate (Corning). To the wells were added α-MSH (30 pg/ml) and anti-TCR antibody (2C11; 1 μg/ml) diluted in serum-free culture media. Various concentrations of TGF-β1 or TGF-β2 in media were added. In a second set of experiments TGF-β1 or TGF-β2 at a fixed concentration of 5 ng/ml were added to the wells at various times (0, 2, 4 and 6 hours) after addition of anti-TCR antibody. The cultures were incubated for 24 hours and 0.5 μCi of 3H-thymidine (NEM, Boston, Mass.) was added to the wells and the cultures were incubated for an additional 24 hours. The cells were collected and incorporated radiolabeled was measured by scintillation counting. Production of TGF-β by the treated primed T cells was done by centrifuging the culture plates 24 hours after the addition of anti-TCR antibody, removing the supernatant, washing the cultures once and adding fresh media. […]
FIG. 4 is a bar graph of TGF-β production by primed T cells TCR-stimulated in the presence of α-MSH. […] Significance (p=0.05) was determined by Student's t-test between TGF-β concentrations in cultures of activated α-MSH treated T cells and T cells activated in the absence of α-MSH. […]

Assay [2] deals with primed T cells. The experiment in a line: proliferation of TCR-stimulated primed T cells (3H-thymidine incorporation). Format: cell-based, mouse (BALB/c). Particulars: for T cell proliferation, increasing concentrations of TGF-β: 0.005-5.0 ng/ml, regardless of the presence of α-MSH 30 pg/ml; for T cell proliferation, TGF-β added from the start of TCR-stimulation through 6 hours later: no α-MSH. On the technique in general: Uptake of a labelled nucleoside into DNA is a usual measure of proliferation.

In another assay the test system is primed Th1 cells. Description: in vitro regulatory T cell activity assay (IFN-γ of freshly activated primed Th1 cells in coculture). Particulars: for induction of regulatory T cell activity (suppression of IFN-γ of other Th1 cells), factor individually: α-MSH 30 pg/ml or TGF-β 5.0 ng/ml; for induction of regulatory T cell activity, TGF-β added 4 hours after TCR-stimulation in the presence of α-MSH: α-MSH 30 pg/ml, TGF-β 5.0 ng/ml. In kind it is cell-based, mouse (BALB/c). How it is done: (§1) Assay For In Vitro Regulatory T Cell Activity. The α-MSH-treated TCR-stimulated T cells, as described above, were cultured for 48 hours. The plate was spun down at 250×g for 10 minutes and supernatant discarded. Freshly isolated, enriched in vivo primed Th1 cells (4×10^6 cells/ml) mixed with 2C11 (1 μg/ml) were added (200 μl) to the wells of the α-MSH pre-treated, TCR-stimulated T cells and incubated for 48 hours. The culture supernatant was assayed for IFN-γ by sandwich ELISA. For long term cultures, primed T cells were TCR-stimulated in the presence of α-MSH for 48 hours. The plate was centrifuged and supernatant was exchanged for 200 μl of 2C11 (1 μg/ml) in fresh media, no x-MSH. The cultures were incubated for 72 hours and the conditioned media was again exchanged for fresh media and 2C11 antibody. The cultures were incubated for an additional 48 hours, centrifuged, supernatant discarded, and added were fresh in vivo primed Th1 cells and 2C11 antibody. Soluble TGF-β receptor II (sTGF-βRII, R&D Systems) was added to some of the cultures. These cultures were incubated for 48 hours and the culture supernatant was assayed for IFN-γ by sandwich ELISA.
Primed T cells (4×10^5 cells) were enriched and activated with anti-CD3 in the presence (α-MSH+anti-CD3) or absence (+anti-CD3) of α-MSH (30 pg/ml). After 48 hours of incubation the cells were mixed with freshly enriched primed Th1 cells (4×10^5 cells) and anti-CD3 antibody and cultured for 48 hours. The culture supernatant was assayed for IFN-γ by sandwich ELISA. Results are presented as IFN-γ pg/ml±SEM of eight independent experiments.
In addition, T cells initial TCR-stimulated in the presence of α-MSH and subsequently restimulated twice (Day 2 and Day 5) with anti-TCR antibody in the absence of α-MSH, still suppressed IFN-γ production by freshly activated primed Th1 cells (FIG. 6). […] Primed T cells (4×10^5 cells) were enriched and activated with anti-CD3 antibody in the presence of 30 pg/ml α-MSH (α-MSH+anti-CD3) or absence of α-MSH (+anti-CD3). After 48 hours of incubation the cells were centrifuged and resuspended in fresh media with anti-CD3 antibodies and incubated for 72 hours (day 5). The cells were again washed and re-stimulated with anti-CD3 and incubated for an additional 48 hours (day 7). After the final incubation the treated T cells (4×10^5 cells) were mixed with freshly enriched primed Th1 cells (4×10^5 cells) and anti-CD3 antibody and cultured for 48 hours. The culture supernatant was assayed for IFN-γ by sandwich ELISA. Results are presented as IFN-γ pg/ml±SEM of eight independent experiments. […] Therefore, α-MSH mediates induction of functionally active, regulatory Th3 cells.
TGF-β and α-MSH induce regulatory T cell activity. Primed T cells were TCR-stimulated in the presence or absence of 30 pg/ml α-MSH with TGF-β1 or TGF-β2 (5.0 ng/ml) added 4 hours after TCR-stimulation. The treated T cells (Regulatory T cells) were added to cultures of freshly activated primed T cells. Culture supernatants were assayed for IFN-γ 48 hours after addition of treated T cells. Data are presented as percent suppression±SEM of IFN-γ produced by freshly activated T cells with no added regulatory cells, from eight independent experiments.

The next assay concerns TGF-β. Description: in vitro regulatory T cell assay with soluble TGF-β receptor type II added. Particulars: increasing amounts added to cocultures, 48 hours. In kind it is cell-based, mouse. How it is done: as §1
α-MSH induced regulatory T cells that through TGF-β suppress activation of other T cells. […] The regulatory T cells were washed and added to cultures of freshly TCR-stimulated primed T cells as described for FIG. 15. […]

With “TGF-β1: purified activated TGF-β1 (R&D Systems), transforming growth factor”, the “α-MSH-induced TGF-β production after addition of TGF-β at various times after TCR-stimulation” value in the assay on primed T cells [1] is given as “did not change”. The “T cell proliferation, increasing concentrations of TGF-β” value in the assay with primed T cells [2] was “suppressed”. Also, the “T cell proliferation, low concentrations of TGF-β” value in the assay with primed T cells [2] (TCR-stimulated primed T cells, FIG. 9) is listed as “either no effect or enhanced”. For the same molecule, in the assay with primed T cells [2] (TGF-β 5.0 ng/ml), the “T cell proliferation, TGF-β added from the start of TCR-stimulation through 6 hours later” value was “suppressed”. In the assay with primed Th1 cells, the “induction of regulatory T cell activity (suppression of IFN-γ of other Th1 cells), factor individually” value is on record as “could not alone or with α-MSH induce regulatory T cells” and the “induction of regulatory T cell activity, TGF-β added 4 hours after TCR-stimulation in the presence of α-MSH” value was “antagonized α-MSH-mediated induction of regulatory T cells”.

B1: TGF-β2: recombinant / purified human transforming growth factor-β2 (R&D Systems) (protein, UniProt P61812 303-414, looked up)
Transforming growth factor …: ALDAAYCFRNVQDNCCLRPLYIDFKRDLGWKWIHEPKGYNANFCAGACPYLWSSDTQHSRVLSLYNTINPEASASPCCVSQDLEPLTILYYIGKTPKIEQLSNMIVKSCKCS
modifications: Transforming growth factor beta-2
With B1, in the assay with primed T cells [1], the “α-MSH-induced TGF-β production after addition of TGF-β at various times after TCR-stimulation” value is “did enhance”. The “T cell proliferation, increasing concentrations of TGF-β” value with primed T cells [2] is “suppressed”. Besides, the “T cell proliferation, TGF-β added from the start of TCR-stimulation through 6 hours later” value in the assay with primed T cells [2] (TGF-β 5.0 ng/ml) is “suppressed”. Also, the “T cell proliferation, TGF-β added at or later than 4 hours after TCR-stimulation” value in the assay with primed T cells [2] (TGF-β 5.0 ng/ml, α-MSH 30 pg/ml present) is “recovered”. Moreover, in the assay with primed Th1 cells, the “induction of regulatory T cell activity (suppression of IFN-γ of other Th1 cells), factor individually” value is given as “induced regulatory T cell activity” and the “induction of regulatory T cell activity, TGF-β added 4 hours after TCR-stimulation in the presence of α-MSH” value is on record as “enhanced the regulatory activity”.

B2: sTGF-βRII: soluble TGF-β receptor type-two (R&D Systems), used to neutralize TGF-β activity (protein, UniProt P37173 23-166, looked up)
extracellular domain: TIPPHVQKSVNNDMIVTDNNGAVKFPQLCKFCDVRFSTCDNQKSCMSNCSITSICEKPQEVCVAVWRKNDENITLETVCHDPKLPYHDFILEDAASPKCIMKEKKKPGETFFMCSCSSDECNDNIIFSEEYNTSNPDLLLVIFQ
modifications: extracellular domain
In the case of B2, the “effect on suppression of IFN-γ production mediated by α-MSH-treated T cells” value in the assay with TGF-β was “neutralized”.
